In PMC8499050:

How the values were obtained:
Test in all cases: ITC
[1] = target: human activated factor IX (Homo sapiens) (UniProt P00740)
[2] = target: human factor X (zymogen) (Homo sapiens) (UniProt P00742)
[3] = target: human activated factor X (Homo sapiens) (UniProt P00742)
[4] = target: human factor IX (zymogen) (Homo sapiens) (UniProt P00740)
human factor IX (zymogen) (Homo sapiens), sequence (P00740 47-461): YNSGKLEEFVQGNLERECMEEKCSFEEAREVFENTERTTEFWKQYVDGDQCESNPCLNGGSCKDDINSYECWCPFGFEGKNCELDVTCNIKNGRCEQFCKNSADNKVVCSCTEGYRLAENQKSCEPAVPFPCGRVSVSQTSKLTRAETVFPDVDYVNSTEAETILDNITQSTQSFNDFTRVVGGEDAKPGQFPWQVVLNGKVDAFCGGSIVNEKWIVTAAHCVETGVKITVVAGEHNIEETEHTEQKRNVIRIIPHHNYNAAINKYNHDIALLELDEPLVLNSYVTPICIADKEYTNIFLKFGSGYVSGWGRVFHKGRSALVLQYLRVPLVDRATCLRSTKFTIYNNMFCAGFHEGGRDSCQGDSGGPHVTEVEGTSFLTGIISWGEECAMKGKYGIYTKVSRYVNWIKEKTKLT

human activated factor IX (Homo sapiens), sequence (P00740 47-191, chain 1 of 2): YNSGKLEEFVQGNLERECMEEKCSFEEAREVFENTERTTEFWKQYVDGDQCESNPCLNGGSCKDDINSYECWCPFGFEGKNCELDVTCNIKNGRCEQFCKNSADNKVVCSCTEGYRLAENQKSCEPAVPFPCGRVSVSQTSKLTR
human activated factor IX (Homo sapiens), sequence (P00740 227-461, chain 2 of 2): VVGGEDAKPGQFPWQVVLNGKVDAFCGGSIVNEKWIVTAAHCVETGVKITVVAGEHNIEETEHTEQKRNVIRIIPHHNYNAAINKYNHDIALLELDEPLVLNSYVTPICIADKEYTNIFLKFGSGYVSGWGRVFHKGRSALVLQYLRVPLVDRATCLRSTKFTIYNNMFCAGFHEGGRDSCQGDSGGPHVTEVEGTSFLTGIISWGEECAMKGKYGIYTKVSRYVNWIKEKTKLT
human activated factor X (Homo sapiens), sequence (P00742 235-488, chain 1 of 2): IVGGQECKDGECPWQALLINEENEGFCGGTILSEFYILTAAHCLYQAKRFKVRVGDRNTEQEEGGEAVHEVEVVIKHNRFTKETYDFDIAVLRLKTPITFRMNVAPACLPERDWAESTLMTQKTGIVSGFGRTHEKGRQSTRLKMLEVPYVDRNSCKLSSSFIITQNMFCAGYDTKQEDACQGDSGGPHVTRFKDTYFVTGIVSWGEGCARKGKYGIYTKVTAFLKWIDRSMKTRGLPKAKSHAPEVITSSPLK
human activated factor X (Homo sapiens), sequence (P00742 235-488, chain 2 of 2): as the sequence (P00742 235-488, chain 1 of 2) above
human factor X (zymogen) (Homo sapiens), sequence (P00742 whole entry, looked up): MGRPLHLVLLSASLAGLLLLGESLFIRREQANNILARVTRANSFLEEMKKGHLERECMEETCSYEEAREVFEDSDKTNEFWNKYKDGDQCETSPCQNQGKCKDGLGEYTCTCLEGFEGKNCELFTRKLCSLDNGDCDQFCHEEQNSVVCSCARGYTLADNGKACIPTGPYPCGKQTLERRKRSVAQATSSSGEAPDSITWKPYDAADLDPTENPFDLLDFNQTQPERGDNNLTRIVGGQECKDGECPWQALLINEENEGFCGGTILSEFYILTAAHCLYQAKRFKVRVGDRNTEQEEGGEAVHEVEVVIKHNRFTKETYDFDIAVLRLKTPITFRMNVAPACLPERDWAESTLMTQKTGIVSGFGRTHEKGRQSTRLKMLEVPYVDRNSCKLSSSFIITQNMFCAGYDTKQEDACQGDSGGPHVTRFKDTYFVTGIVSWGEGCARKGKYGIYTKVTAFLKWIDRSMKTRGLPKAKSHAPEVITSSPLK

Mim8 (bispecific antibody)
Kd [1]: 2300 nM | Kd [2]: 1500 nM | Kd [3]: 300 nM | Kd [4]: 4700 nM
